Patent US20100129369A1 (Eli Lilly, published 2010)

Columns and labels:
Rat c-Met-Flis-Fc ECD = molecular target: T1, Rat c-Met-Flis-Fc ECD (rat); experiment: SPR (Biacore), antibody captured
T1 construct: also called Rat cMet-ECD-Fc-Flis; rat c-Met ECD
Experimental: A Biacore® 2000 instrument is used to measure the binding kinetics of c-Met antibodies to human, cynomolgus monkey, and rat c-Met ECDs. Measurements are performed at 25° C. Samples are dissolved in HBS-EP buffer (150 mM sodium chloride, 3 mM EDTA, 0.005% (w/v) surfactant P-20, and 10 mM N-2-hydroxyethylpiperazine-N′-2-ethanesulfonic acid (HEPES) at pH 7.4; #BR-1001-88).
Binding is evaluated using multiple cycles. Each cycle is performed at a flow rate of 50 μL/min., and consists of the following steps: injection of about 10 μL of a c-Met antibody at 10 μg/mL aiming at a capture of 40-100 RUs, injection of 250 μL of human, cynomolgus, or rat c-Met-Flis-Fc ECD (starting at 100 nM and using two-fold serial dilutions for each cycle) followed by 20 min. for dissociation, and regeneration using about 30 μL of 10 mM glycine hydrochloride, pH 1.5. Association and dissociation rates for each cycle are evaluated using a “1:1 (Langmuir) binding” model in the BIAevaluation software, version 4.1.

Human c-Met-Flis-Fc ECD = molecular target: T2, Human c-Met-Flis-Fc ECD (human); experiment: ELISA, coated ECD-Fc, antibody 0.010 ng/mL
T2 construct: also called human c-Met extracellular domain (ECD)-Fc-Flis fusion; Human cMet-ECD-Fc-Flis
Experimental: (§1) Wells of 96-well EIA/RIA high binding plates (Costar, #2592) are coated with 100 μL of 1 μg/mL human c-Met extracellular domain (ECD)-Fc-Flis fusion (SEQ ID NO:72), RON-ECD-Fc (R&D Systems, #1947-MS), or PlexinA2-ECD-Fc (Abnova, Taipei, Taiwan #H00005362-P01) in coating buffer (BioFX Labs, # COAT-1000-01) overnight at 4° C. […] After the plates are washed, 100 μL/well of substrate solution (BioFx, #TMBW-1000-01) are added and the plates are incubated for 10 min. at room temperature. 100 μL/well of stop solution (BioFx, # LSTP-1000-01) are added to stop the reaction. The colorimetric signals are developed and read at 450 nm using a SpectraMax 190 plate reader (Molecular Devices, Sunnyvale, Calif.). c-Met antibody binding to c-Met, RON and PlexinA2 ECDs is proportional to color signal production.

RON-ECD-Fc = molecular target: T3, RON-ECD-Fc (human, UniProt Q04912 25-957); experiment: ELISA, coated ECD-Fc, antibody 0.010 ng/mL
T3 construct: extracellular domain; Bought reagent; not shown: Fc part of the bought fusion
T3 sequence (looked up): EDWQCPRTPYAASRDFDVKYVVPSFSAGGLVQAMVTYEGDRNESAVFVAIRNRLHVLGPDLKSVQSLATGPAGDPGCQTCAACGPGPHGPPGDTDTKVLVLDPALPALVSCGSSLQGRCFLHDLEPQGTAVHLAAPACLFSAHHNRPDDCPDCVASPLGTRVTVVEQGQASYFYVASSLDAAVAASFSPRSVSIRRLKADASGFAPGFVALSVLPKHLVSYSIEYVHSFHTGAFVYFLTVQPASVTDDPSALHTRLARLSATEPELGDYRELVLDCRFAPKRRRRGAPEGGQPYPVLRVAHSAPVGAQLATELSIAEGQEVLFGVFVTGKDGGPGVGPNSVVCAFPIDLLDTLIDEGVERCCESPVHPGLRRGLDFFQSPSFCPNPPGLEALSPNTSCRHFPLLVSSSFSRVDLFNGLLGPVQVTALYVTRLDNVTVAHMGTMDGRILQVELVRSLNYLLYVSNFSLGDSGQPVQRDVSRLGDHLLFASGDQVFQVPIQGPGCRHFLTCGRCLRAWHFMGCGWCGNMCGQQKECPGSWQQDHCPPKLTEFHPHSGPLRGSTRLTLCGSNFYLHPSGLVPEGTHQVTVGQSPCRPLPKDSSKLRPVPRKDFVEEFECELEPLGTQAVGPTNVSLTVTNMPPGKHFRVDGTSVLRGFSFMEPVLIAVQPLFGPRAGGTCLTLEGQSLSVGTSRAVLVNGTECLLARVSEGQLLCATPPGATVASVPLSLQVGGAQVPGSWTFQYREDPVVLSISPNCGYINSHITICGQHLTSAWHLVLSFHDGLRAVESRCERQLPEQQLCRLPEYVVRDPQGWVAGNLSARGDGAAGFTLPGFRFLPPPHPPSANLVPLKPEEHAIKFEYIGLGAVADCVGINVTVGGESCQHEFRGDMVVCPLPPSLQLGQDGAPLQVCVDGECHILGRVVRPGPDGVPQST
Experimental: as §1

T1 sequence (chain, as listed by the source limits assumed): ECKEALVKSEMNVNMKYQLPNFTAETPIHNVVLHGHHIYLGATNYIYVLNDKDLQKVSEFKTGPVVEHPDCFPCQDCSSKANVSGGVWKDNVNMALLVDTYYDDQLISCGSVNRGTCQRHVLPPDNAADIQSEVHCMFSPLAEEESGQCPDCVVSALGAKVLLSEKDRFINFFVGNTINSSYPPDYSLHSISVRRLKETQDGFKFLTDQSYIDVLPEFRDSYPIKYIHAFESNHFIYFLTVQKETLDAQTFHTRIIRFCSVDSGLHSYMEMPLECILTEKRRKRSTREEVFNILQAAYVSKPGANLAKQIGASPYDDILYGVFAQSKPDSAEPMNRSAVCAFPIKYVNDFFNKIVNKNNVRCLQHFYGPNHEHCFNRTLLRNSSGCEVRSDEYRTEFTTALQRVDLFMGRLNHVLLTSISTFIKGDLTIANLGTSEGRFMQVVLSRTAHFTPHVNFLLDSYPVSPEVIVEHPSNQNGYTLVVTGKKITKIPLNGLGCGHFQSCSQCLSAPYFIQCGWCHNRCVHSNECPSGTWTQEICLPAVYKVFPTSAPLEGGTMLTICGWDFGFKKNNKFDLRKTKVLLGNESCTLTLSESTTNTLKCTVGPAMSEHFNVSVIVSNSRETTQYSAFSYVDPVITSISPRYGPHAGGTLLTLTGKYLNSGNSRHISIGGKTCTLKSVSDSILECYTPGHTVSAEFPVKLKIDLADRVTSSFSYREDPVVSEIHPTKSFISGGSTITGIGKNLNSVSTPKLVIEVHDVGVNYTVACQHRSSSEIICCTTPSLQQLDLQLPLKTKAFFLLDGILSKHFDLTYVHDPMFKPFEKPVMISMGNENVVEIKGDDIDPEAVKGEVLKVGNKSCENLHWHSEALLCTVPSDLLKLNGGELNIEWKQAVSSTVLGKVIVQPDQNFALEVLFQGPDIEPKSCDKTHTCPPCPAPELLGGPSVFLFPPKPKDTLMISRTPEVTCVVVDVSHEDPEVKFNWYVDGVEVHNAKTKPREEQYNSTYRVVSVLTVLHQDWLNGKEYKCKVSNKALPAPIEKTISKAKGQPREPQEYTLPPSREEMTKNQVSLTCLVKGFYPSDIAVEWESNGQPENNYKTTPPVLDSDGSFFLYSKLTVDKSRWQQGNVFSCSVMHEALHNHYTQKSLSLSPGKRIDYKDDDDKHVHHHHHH
T2 sequence (chain, as listed by the source limits assumed): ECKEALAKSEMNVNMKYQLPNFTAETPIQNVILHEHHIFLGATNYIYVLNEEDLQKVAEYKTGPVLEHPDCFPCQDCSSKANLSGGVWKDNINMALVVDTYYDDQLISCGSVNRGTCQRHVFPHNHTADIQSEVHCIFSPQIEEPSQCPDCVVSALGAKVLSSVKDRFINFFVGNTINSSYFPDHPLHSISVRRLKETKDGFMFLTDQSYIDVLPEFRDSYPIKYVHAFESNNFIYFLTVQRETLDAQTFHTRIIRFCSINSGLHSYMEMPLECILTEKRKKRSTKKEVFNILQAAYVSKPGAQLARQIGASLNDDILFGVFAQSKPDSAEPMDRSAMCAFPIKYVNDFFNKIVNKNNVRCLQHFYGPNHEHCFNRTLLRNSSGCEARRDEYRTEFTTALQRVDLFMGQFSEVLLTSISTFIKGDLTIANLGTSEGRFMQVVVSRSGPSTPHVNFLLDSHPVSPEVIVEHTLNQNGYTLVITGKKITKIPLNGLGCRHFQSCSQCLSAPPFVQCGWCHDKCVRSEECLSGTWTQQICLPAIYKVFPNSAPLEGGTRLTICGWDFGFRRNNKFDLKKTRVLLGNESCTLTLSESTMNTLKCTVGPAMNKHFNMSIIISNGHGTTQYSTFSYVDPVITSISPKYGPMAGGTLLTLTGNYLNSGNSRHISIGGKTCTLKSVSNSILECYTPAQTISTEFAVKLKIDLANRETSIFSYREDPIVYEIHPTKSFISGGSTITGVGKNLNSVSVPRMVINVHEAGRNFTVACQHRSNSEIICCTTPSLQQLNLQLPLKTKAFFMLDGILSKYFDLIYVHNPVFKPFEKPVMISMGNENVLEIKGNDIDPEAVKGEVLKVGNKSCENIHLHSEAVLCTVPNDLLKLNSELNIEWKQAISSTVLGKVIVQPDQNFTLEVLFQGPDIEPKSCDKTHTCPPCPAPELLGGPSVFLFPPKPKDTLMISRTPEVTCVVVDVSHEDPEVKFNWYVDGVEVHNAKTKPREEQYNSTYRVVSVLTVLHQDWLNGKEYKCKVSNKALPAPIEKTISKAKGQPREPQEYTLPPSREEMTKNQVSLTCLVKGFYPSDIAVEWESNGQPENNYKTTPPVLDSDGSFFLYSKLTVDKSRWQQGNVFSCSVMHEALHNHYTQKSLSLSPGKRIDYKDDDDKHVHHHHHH

- binding result (Rat c-Met-Flis-Fc ECD): no binding
- Average A450 nm (Human c-Met-Flis-Fc ECD): 0.335 A450 nm
- Average A450 nm (RON-ECD-Fc): 0.097 A450 nm
B1: C8-6 (antibody, human IgG2, kappa, V domains shown)
VH: QVQLVQSGAEVKKPGASVKVSCKASGYTFTDYYMHWVRQAPGQGLEWMGRVNPNRGGTTYNQKFEGRVTMTTDTSTSTAYMELRSLRSDDTAVYYCARTNWLDYWGQGTTVTVSS
VL: DIQMTQSPSSLSASVGDRVTITCSVSSSVSSIYLHWYQQKPGKAPKLLIYSTSNLASGVPSRFSGSGSGTDFTLTISSLQPEDFATYYCIQYSGYPLTFGGGTKVEIKR
notes: Called IgG4, kappa; also called Mab C8-6
